Results: patent US20210069342A1 (LEGOCHEM BIOSCIENCES, published 2021)

What was measured:
[1] = target: T1, human ROR1 expressed on the cell surface (human, UniProt Q01973 30-937); test: flow cytometry on HCC1143 cells (breast cancer), C2E3 IgG, FITC anti-human Fc detection
T1 construct: whole, on cells; also called cell surface-expressed ROR1 antigen; ROR1 on JeKo-1, Mino, CHO-human ROR1, MC38-human ROR1 and other cancer cell lines
Experimental: (§1) FACS analysis (FACSCalibur, BD Biosciences) was used to analyze the binding of the anti-ROR1 antibody of the present invention to ROR1 in the above cell lines.
(§2) Specifically, the respective cell lines were dissociated and washed in PBS, then the numbers of cells were counted and adjusted to 2×10⁵ cells/200 PBS. Then, they were treated with 10 /mL of the antibody of clone name C2E3 of the ROR1 monoclonal antibodies prepared in Embodiment 3, and reacted for 1 hour at 4° C. After the reaction, the cells were washed in PBS, then FITC-marked constant region (Fc) specific antibody (Goat anti-human IgG FITC conjugate, Fc specific, Sigma, F9512, concentration 20 mg/ml) was suspended in 2 /1×10⁵ cells/200 PBS and reacted for 1 hour at 4° C. After reacting, the cells were washed with PBS and analyzed with the FACSCalibur equipment. The negative control was only treated with FITC-marked constant region (Fc) specific antibody. To compare the degree of ROR1 expression among the respective cancer cell lines, the quotient of dividing the shifted readings for the experimental group treated with the ROR1 monoclonal antibody (C2E3) of the present invention by the shifted readings for the control group (MFI Ratio: MFI of anti-ROR1/MFI or 2nd Ab) is indicated.

[2] = target: T1, human ROR1 expressed on the cell surface; test: flow cytometry on MKN-28 cells (gastric cancer), C2E3 IgG, FITC anti-human Fc detection
Experimental: as §1, §2

[3] = target: T1, human ROR1 expressed on the cell surface; test: flow cytometry on NCI-N87 cells (gastric cancer), C2E3 IgG, FITC anti-human Fc detection
Experimental: as §1, §2

[4] = target: T1, human ROR1 expressed on the cell surface; test: flow cytometry on HCT116 cells (colon cancer), C2E3 IgG, FITC anti-human Fc detection
Experimental: as §1, §2

[5] = target: T1, human ROR1 expressed on the cell surface; test: flow cytometry on SNU-16 cells (gastric cancer), C2E3 IgG, FITC anti-human Fc detection
Experimental: as §1, §2

[6] = target: T1, human ROR1 expressed on the cell surface; test: flow cytometry on DLD-1 cells (colon cancer), C2E3 IgG, FITC anti-human Fc detection
Experimental: as §1, §2

[7] = target: T1, human ROR1 expressed on the cell surface; test: flow cytometry on HCC1937 cells (breast cancer), C2E3 IgG, FITC anti-human Fc detection
Experimental: as §1, §2

[8] = target: T1, human ROR1 expressed on the cell surface; test: flow cytometry on BT20 cells (breast cancer), C2E3 IgG, FITC anti-human Fc detection
Experimental: as §1, §2

[9] = target: T1, human ROR1 expressed on the cell surface; test: flow cytometry on 697 cells (ALL), C2E3 IgG, FITC anti-human Fc detection
Experimental: as §1, §2

[10] = target: T1, human ROR1 expressed on the cell surface; test: flow cytometry on Jurkat cells (T cell leukemia), C2E3 IgG, FITC anti-human Fc detection
Experimental: as §1, §2

[11] = target: T1, human ROR1 expressed on the cell surface; test: flow cytometry on HCC70 cells (breast cancer), C2E3 IgG, FITC anti-human Fc detection
Experimental: as §1, §2

[12] = target: T2, recombinant mouse ROR1 protein (Acrobiosystems, RO1-M5221) (mouse, UniProt Q9Z139 30-403); test: ELISA, wells coated with recombinant mouse ROR1 protein, IgG titrated, HRP anti-Fab detection, OD (450-650nm)
T2 construct: Bought protein; also called mouse ROR1 antigen
T2 sequence (Q9Z139 30-403 limits assumed): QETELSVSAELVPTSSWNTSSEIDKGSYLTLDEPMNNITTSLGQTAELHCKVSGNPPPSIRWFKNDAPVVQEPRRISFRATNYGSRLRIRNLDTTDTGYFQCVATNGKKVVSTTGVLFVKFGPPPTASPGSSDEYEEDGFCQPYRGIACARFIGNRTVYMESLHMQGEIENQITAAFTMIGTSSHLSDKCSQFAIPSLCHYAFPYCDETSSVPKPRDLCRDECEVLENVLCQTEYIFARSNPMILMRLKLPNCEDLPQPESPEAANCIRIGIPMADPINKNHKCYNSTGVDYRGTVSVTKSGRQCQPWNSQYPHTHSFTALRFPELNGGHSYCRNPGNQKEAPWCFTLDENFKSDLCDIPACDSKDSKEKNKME
Experimental: Anti-ROR1 antibody antigen binding affinity was assessed using an ELISA-based solution binding assay. Specifically, a 96-well microtiter plate (Nunc-Immuno Plates), NUNC) was coated for 16 hours at 4° C. with the ROR1 protein described below at a concentration of 1 in PBS solution, and non-specific binding sites were blocked for 2 hours with 3% BSA (bovine serum albumin). Here, the ROR1 protein used was, in the case of human ROR1, the ROR1-Fc or recombinant human ROR1-His (Sino Biological, 13968-H08H) of Embodiment 1. The ROR1-His used in ELISA, as stated in the above sentence, was a protein from the Sino Biological company (13968-H08H), and the ROR1-His of Embodiment 1 or recombinant mouse ROR1 protein was used (Acrobiosystems, RO1-M5221-100 )
Subsequently, the anti-ROR1 antibodies prepared in Embodiment 3 were added at the concentrations stated in FIG. 2 to a 96-well microtiter plate, and binding capacity was analyzed using ELISA as follows. Specifically, after incubating for 2 hours, the plate was washed 5 times with PBS containing 0.05% Tween 20, then HRP-conjugated Fab multiclonal antibody reagent (Perce, 31414) was diluted to 1:10,000 and placed in the washed microtiter plate. After reacting for 1 hour at 37° C., the ROR1 antibodies bonded to the plate were detected. After the reaction, color development was performed using TMB (Tetramethylbenzidine, Sigma, T0440). The enzymatic reaction was stopped using 0.5 mol/L sulfuric acid, and absorbance at 450 nm and 650 nm was measured (450 nm-650 nm) using a micro plate reader (Molecular Device)

[13] = target: T1, human ROR1 expressed on the cell surface; test: flow cytometry on Mino cells (MCL), C2E3 IgG, FITC anti-human Fc detection
Experimental: as §1, §2

T1 sequence (Q01973 30-937): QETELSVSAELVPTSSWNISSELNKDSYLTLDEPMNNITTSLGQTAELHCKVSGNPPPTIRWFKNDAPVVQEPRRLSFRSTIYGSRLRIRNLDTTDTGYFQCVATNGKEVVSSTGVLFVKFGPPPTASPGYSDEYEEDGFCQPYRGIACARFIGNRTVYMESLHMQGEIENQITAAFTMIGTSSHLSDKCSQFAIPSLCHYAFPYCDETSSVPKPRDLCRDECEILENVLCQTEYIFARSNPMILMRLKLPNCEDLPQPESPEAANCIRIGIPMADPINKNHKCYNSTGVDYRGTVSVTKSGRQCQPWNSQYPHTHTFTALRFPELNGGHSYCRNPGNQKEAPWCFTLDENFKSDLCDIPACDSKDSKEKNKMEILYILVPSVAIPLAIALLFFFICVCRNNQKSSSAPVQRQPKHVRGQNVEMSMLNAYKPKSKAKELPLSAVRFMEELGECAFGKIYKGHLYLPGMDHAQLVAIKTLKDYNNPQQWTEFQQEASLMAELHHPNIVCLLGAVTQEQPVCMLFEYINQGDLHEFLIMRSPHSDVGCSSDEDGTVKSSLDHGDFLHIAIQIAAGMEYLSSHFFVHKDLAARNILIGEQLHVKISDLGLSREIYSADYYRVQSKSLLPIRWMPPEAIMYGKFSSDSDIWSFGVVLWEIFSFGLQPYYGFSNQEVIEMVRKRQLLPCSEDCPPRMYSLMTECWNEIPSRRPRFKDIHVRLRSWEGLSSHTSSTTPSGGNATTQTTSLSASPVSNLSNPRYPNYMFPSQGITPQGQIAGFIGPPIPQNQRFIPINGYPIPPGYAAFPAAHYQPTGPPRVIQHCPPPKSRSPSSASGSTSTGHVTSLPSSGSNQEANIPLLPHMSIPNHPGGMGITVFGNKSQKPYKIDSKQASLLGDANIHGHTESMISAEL

B1: anti-ROR1 IgG antibody C2E3 (antibody, V domains shown)
VH: EVQLLESGGGLVQPGGSLRLSCAASGFTFSNYAMSWVRQAPGKGLEWVSSISHNSGSTYYADSVKGRFTISRDNSKNTLYLQMNSLRAEDTAVYYCAKFISARKSLGRSYSNGMDVWGQGTLVTVSS
VL: QSVLTQPPSASGTPGQRVTISCTGSSSNIGSNDVTWYQQLPGTAPKLLIYADSKRPSGVPDRFSGSKSGTSASLAISGLRSEDEADYYCGTWDYSLSGYVFGGGTKLTVLG
notes: Full IgG form (human IgG1 constant region, lambda light chain), expressed in CHO-S cells
[1]
  Mean Fold Ratio (MFI of anti-ROR1 / MFI of 2nd Ab): 3.2
[2]
  Mean Fold Ratio (MFI of anti-ROR1 / MFI of 2nd Ab): 4.9
[3]
  Mean Fold Ratio (MFI of anti-ROR1 / MFI of 2nd Ab): 11.8
[4]
  Mean Fold Ratio (MFI of anti-ROR1 / MFI of 2nd Ab): 18
[5]
  Mean Fold Ratio (MFI of anti-ROR1 / MFI of 2nd Ab): 2.4
[6]
  Mean Fold Ratio (MFI of anti-ROR1 / MFI of 2nd Ab): 17.6
[7]
  Mean Fold Ratio (MFI of anti-ROR1 / MFI of 2nd Ab): 2.7
[8]
  Mean Fold Ratio (MFI of anti-ROR1 / MFI of 2nd Ab): 3
[9]
  Mean Fold Ratio (MFI of anti-ROR1 / MFI of 2nd Ab): 12
[10]
  Mean Fold Ratio (MFI of anti-ROR1 / MFI of 2nd Ab): 1.7
[11]
  Mean Fold Ratio (MFI of anti-ROR1 / MFI of 2nd Ab): 3.8
[12]
  EC50 (read off the curve): ~300 pM
[13]
  Mean Fold Ratio (MFI of anti-ROR1 / MFI of 2nd Ab): 7.2
